What was measured:
[1] = target: T1, recombinant cMet/HGFR with c-terminal His-tag, Cy5-labeled (UniProt P08581 25-932, limits assumed, Cy5 label (reacted with Cy5 Mono NHS Ester; sites not stated)); assay: competitive TR-FRET (Eu-amivantamab/Cy5-c-MET), EC50 ratio vs Reference Material; Ex. 11 drug product, 3 months at 40 C
T1 construct: Commercial protein; also called Cy5-c-MET; Cy5-labeled c-MET antigen; not shown: C-terminal His-tag
Text: (§1) In this procedure, varying concentrations of unlabeled bispecific EGFR-cMet antibody sample compete with donor fluorophore (Europium (Eu) chelate) labeled bispecific EGFR-cMet antibody for binding to an acceptor fluorophore (Cy5)-labeled c-MET antigen. Excitation of the donor fluorophore results in a transfer of energy to the bound acceptor fluorophore (FRET process). The resultant FRET is detected by emission of light at 665 nm using a microplate reader capable of measuring time-resolved fluorescence. Sample dose response curves are compared to the Reference Material (RM).
(§2) c-MET Binding Materials and Methods. Certified commercial cMet, a recombinant cMet/HGFR with c-terminal His-tag is reacted with certified commercial Cy5 Mono NHS Ester to produce Cy5-labeled c-MET. Validated bispecific EGFR-cMet antibody is reacted with certified commercial Europium (Eu) chelate to produce Eu labeled bispecific EGFR-cMet antibody. […] Fluorescence is then measured by spectrophotometry at 665 nm, plotted against antibody concentration and analyzed by a four-parameter logistic model. The antibody concentration required to obtain half of the maximum fluorescence response (EC50) is determined for RM, assay control and samples. The potencies of assay control and samples are calculated based on the ratio of the sample (or control) and RM EC50 values and reported as a percentage activity relative to the RM.

[2] = target: T2, recombinant human EGFR/ErbB1/HER1 with C-terminal His tag, Cy5-labeled (human, UniProt P00533 25-645, Cy5 label (reacted with Cy5 Mono NHS Ester; sites not stated)); assay: competitive TR-FRET (Eu-amivantamab/Cy5-EGFR), EC50 ratio vs Reference Material; Ex. 2 Formulation 1 (10 mM histidine), T0, 5 C table
T2 construct: Commercial protein; also called Cy5-EGFR; Cy5-labeled EGFR antigen; not shown: C-terminal His tag
Text: as §1, with “EGFR” for “c-MET”, “RM.” for “Reference Material (RM).”
as §2, with “EGFR” for “c-MET”, “EGFR,” for “cMet,”, “human EGFR/ErbB1/HER1” for “cMet/HGFR”, “C-terminal His tag” for “c-terminal His-tag”, “EGFR.” for “c-MET.”, “Eu-labeled” for “Eu labeled”

[3] = target: T1, recombinant cMet/HGFR with c-terminal …; assay: competitive TR-FRET (Eu-amivantamab/Cy5-c-MET), EC50 ratio vs Reference Material; Ex. 2 Formulation 2 (50 mM histidine), T0, 5 C table
Text: as §1, §2

[4] = target: T2, recombinant human EGFR/ErbB1/HER1 with …; assay: competitive TR-FRET (Eu-amivantamab/Cy5-EGFR), EC50 ratio vs Reference Material; Ex. 12 drug product with rHuPH20, 0 months, 25 C table
Text: as §1, with “EGFR” for “c-MET”, “RM.” for “Reference Material (RM).”
as §2, with “EGFR” for “c-MET”, “EGFR,” for “cMet,”, “human EGFR/ErbB1/HER1” for “cMet/HGFR”, “C-terminal His tag” for “c-terminal His-tag”, “EGFR.” for “c-MET.”, “Eu-labeled” for “Eu labeled”

[5] = target: T2, recombinant human EGFR/ErbB1/HER1 with …; assay: competitive TR-FRET (Eu-amivantamab/Cy5-EGFR), EC50 ratio vs Reference Material; Ex. 12 drug product with rHuPH20, 0 months, 40 C table
Text: as §1, with “EGFR” for “c-MET”, “RM.” for “Reference Material (RM).”
as §2, with “EGFR” for “c-MET”, “EGFR,” for “cMet,”, “human EGFR/ErbB1/HER1” for “cMet/HGFR”, “C-terminal His tag” for “c-terminal His-tag”, “EGFR.” for “c-MET.”, “Eu-labeled” for “Eu labeled”

[6] = target: T1, recombinant cMet/HGFR with c-terminal …; assay: competitive TR-FRET (Eu-amivantamab/Cy5-c-MET), EC50 ratio vs Reference Material; Ex. 2 Formulation 2 (50 mM histidine), 3 months at 5 C
Text: as §1, §2

[7] = target: T2, recombinant human EGFR/ErbB1/HER1 with …; assay: competitive TR-FRET (Eu-amivantamab/Cy5-EGFR), EC50 ratio vs Reference Material; Ex. 2 Formulation 1 (10 mM histidine), 3 months at 25 C
Text: as §1, with “EGFR” for “c-MET”, “RM.” for “Reference Material (RM).”
as §2, with “EGFR” for “c-MET”, “EGFR,” for “cMet,”, “human EGFR/ErbB1/HER1” for “cMet/HGFR”, “C-terminal His tag” for “c-terminal His-tag”, “EGFR.” for “c-MET.”, “Eu-labeled” for “Eu labeled”

[8] = target: T1, recombinant cMet/HGFR with c-terminal …; assay: competitive TR-FRET (Eu-amivantamab/Cy5-c-MET), EC50 ratio vs Reference Material; Ex. 2 Formulation 2 (50 mM histidine), 3 months at 40 C
Text: as §1, §2

cMET Binding activity relative to Reference Material (%) [1]: 78% | EGFR Binding % activity relative to RM [2]: 103% | cMET Binding % activity relative to RM [3]: 102% | EGFR Binding activity relative to Reference Material (%) [4]: 92% | EGFR Binding activity relative to Reference Material (%) [5]: 92% | cMET Binding % activity relative to RM [6]: 98% | EGFR Binding % activity relative to RM [7]: 100% | cMET Binding % activity relative to RM [8]: 77%
B1: amivantamab (bispecific antibody, human IgG1, kappa)
heavy 1: not shown
light 1: not shown
heavy 2: not shown
light 2: DIQMTQSPSSVSASVGDRVTITCRASQGISNWLAWFQHKPGKAPKLLIYAASSLLSGVPSRFSGSGSGTDFTLTISSLQPEDFATYYCQQANSFPITFGQGTRLEIKRTVAAPSVFIFPPSDEQLKSGTASVVCLLNNFYPREAKVQWKVDNALQSGNSQESVTEQDSKDSTYSLSSTLTLSKADYEKHKVYACEVTHQGLSSPVTKSFNRGEC
notes: The samples tested were high concentration (160 mg/mL) formulations, fresh or stored or stressed; also called JNJ-61186372; bispecific EGFR-cMet antibody

— patent publication US20240034813A1 (Janssen / Centocor, published 2024)
